Assay results as given in PMC7954794, “Protein context shapes the specificity of SH3 domain-mediated interactions in vivo” (Nature Communications, 2021).

Tested on: growth of yeast strains under 51 stress conditions
Experiment: Growth assays in 51 stress conditions (Fig. 1E-F, S2D, S5B)
Type: cell-based, Saccharomyces cerevisiae
Design: key to Growth (Fig. S2D) / growth of ABP1 SH3-swapped strains in stress condition: log2 colony size, average of median per strain (growth score)
Details: ABP1 SH3-swapped strains
Method in brief: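 Yeast WT, SH3-deleted, KO, SH3-swapped and SH3-shuffled strains pinned in 1536 format, 12 replicates each; pregrown on YPD 2 days at 30 °C, then replicated onto 51 media at 37 °C and imaged every 2 h. Growth score = mean of per-plate median log2 colony size at 74 h.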

B1: PEX13 (protein, UniProt P80667 1-386, looked up)
Peroxisomal membrane protein …: MSSTAVPRPKPWETSASLEEPQRNAQSLSAMMTSNQQDSRPTEESNNSNSASESAPEVLPRPAALNSSGTYGESNTIPGIYGNSNYGIPYDNNPYSMNSIYGNSIGRYGYGGSYYGNNYGSFYGGGYGAGAGYGMNNGSGLGESTKATFQLIESLIGAVTGFAQMLESTYMATHNSFFTMISVAEQFGNLKEMLGSFFGIFAIMKFLKKILYRATKGRLGIPPKNFAESEGSKNKLIEDFQKFNDSGTINSNEKATRRKISWKPLLFFLMAVFGFPYLLNKFITKLQTSGTIRASQGNGSEPIDPSKLEFARALYDFVPENPEMEVALKKGDLMAILSKKDPLGRDSDWWKVRTKNGNIGYIPYNYIEIIKRRKKIEHVDDETRTH
Growth (Fig. S2D) (Bathophenanthroline.0.1uM): 10.7929
Growth (Fig. S2D) (Bathophenanthroline.10uM): 10.6448
Growth (Fig. S2D) (Bathophenanthroline.1uM): 10.7999
Growth (Fig. S2D) (CaCl2.100mM): 10.8263
Growth (Fig. S2D) (CaCl2.250mM): 10.7201
Growth (Fig. S2D) (CaCl2.500mM): 10.3034
Growth (Fig. S2D) (Caffein.10mM): 10.0127
Growth (Fig. S2D) (Caffein.2mM): 10.9279
Growth (Fig. S2D) (CdCl2.100uM): 9.606
Growth (Fig. S2D) (CdCl2.10uM): 10.8888
Growth (Fig. S2D) (CdCl2.50uM): 9.97
Growth (Fig. S2D) (CuSO4.1mM): 10.4898
Growth (Fig. S2D) (CuSO4.5mM): 8.152
Growth (Fig. S2D) (Cycloheximide.0.05.uM): 11.0541
Growth (Fig. S2D) (Cycloheximide.0.2.uM): 10.6387
Growth (Fig. S2D) (Cycloheximide.0.5.uM): 10.1719
Growth (Fig. S2D) (DMSO.2.): 11.0404
Growth (Fig. S2D) (DMSO.6.): 10.0301
Growth (Fig. S2D) (DMSO.8.): 9.367
Growth (Fig. S2D) (Ethanol.2.): 10.7664
Growth (Fig. S2D) (Ethanol.6.): 10.3235
Growth (Fig. S2D) (Ethanol.8.): 10.0926
Growth (Fig. S2D) (Galactose.2.): 10.787
Growth (Fig. S2D) (Glycerol.2.): 9.849
Growth (Fig. S2D) (Hydroxyurea.25mM): 10.7235
Growth (Fig. S2D) (Hygromycin.190uM): 10.9621
Growth (Fig. S2D) (Hygromycin.19uM): 10.9745
Growth (Fig. S2D) (Hygromycin.95uM): 11.0265
Growth (Fig. S2D) (MMS.0.004.): 10.9502
Growth (Fig. S2D) (MMS.0.02.): 10.7047
Growth (Fig. S2D) (MMS.0.04.): 10.0276
Growth (Fig. S2D) (Menadione.100uM): 10.6371
Growth (Fig. S2D) (Menadione.200uM): 10.4195
Growth (Fig. S2D) (Menadione.50uM): 10.8434
Growth (Fig. S2D) (NaCl.0.25M): 10.6874
Growth (Fig. S2D) (NaCl.1M): 9.71
Growth (Fig. S2D) (Nitroquinoline.10uM): 10.7399
Growth (Fig. S2D) (Nitroquinoline.50uM): 10.726
Growth (Fig. S2D) (Nystatin.0.01uM): 11.0207
Growth (Fig. S2D) (Nystatin.0.1uM): 11.0033
Growth (Fig. S2D) (Raffinose.2.): 10.9918
Growth (Fig. S2D) (Rapamycin.10nM): 9.862
Growth (Fig. S2D) (Rapamycin.50nM): 9.428
Growth (Fig. S2D) (SC.pH3): 10.3898
Growth (Fig. S2D) (SC.pH6): 10.9788
Growth (Fig. S2D) (SDS.0.01.): 10.9752
Growth (Fig. S2D) (SDS.0.02.): 10.9697
Growth (Fig. S2D) (SDS.0.05.): 10.895
Growth (Fig. S2D) (Sorbitol.10mM): 10.9735
Growth (Fig. S2D) (Sorbitol.1mM): 11.0343
Growth (Fig. S2D) (Sorbitol.5mM): 10.9175

B2: MYO5 (protein, UniProt Q04439 1-1219, looked up)
Myosin-5: MAILKRGARKKVHQEPAKRSANIKKATFDSSKKKEVGVSDLTLLSKISDEAINENLKKRFLNATIYTYIGHVLISVNPFRDLGIYTDAVMNEYKGKNRLEVPPHVFAIAESMYYNMKSYNENQCVIISGESGAGKTEAAKRIMQYIAAASSTHTESIGKIKDMVLATNPLLESFGCAKTLRNNNSSRHGKYLEIKFNNQFEPCAGNITNYLLEKQRVVSQIKNERNFHIFYQFTKGASDAYRQTFGVQKPEQYVYTAAAGCISAETIDDLQDYQETLKAMRVIGLGQEEQDQIFRMLAAILWIGNVSFIENEEGNAQVRDTSVTDFVAYLLQIDSQLLIKSLVERIMETNHGMKRGSVYHVPLNIVQADAVRDALAKAIYNNLFDWIVSRVNKSLQAFPGAEKSIGILDIYGFEIFEHNSFEQICINYVNEKLQQIFIQLTLKSEQETYEREKIQWTPIKYFDNKVVCDLIEARRPPGIFAAMNDSVATAHADSNAADQAFAQRLNLFTTNPHFDLRSNKFVIKHYAGDVTYDIDGITDKNKDQLQKDLVELIGTTTNTFLATIFPDTVDRESKRRPPTAGDKIIKSANDLVETLSKAQPSYIRTIKPNETKSPNDYDDRQVLHQIKYLGLQENVRIRRAGFAYRQVFEKFVERFYLLSPHCSYAGDYTWQGDTLDAVKYILQDSSIPQQEYQLGVTSVFIKTPETLFALEHMRDRYWHNMAARIQRAWRRFLQRRIDAATKIQRTIRERKEGNKYEKLRDYGTKVLGGRKERRSMSLLGYRAFMGDYLSCNESKSKGAYIKRQVSIKEKVIFSIHGEALHTKFGRSAQRLKKTFLLTPTTLYIVGQTLVQNAMTYTQDYKIDVRNIQAVSLTNLQDDWVAIKLASSGQPDPLINTYFKTELITHLKRLNDKIQIKIGSAIEYQKKPGKLHSVKCQINESAPKYGDIYKSSTISVRRGNPPNSQVHKKPRKKSSISSGYHASSSQATRRPVSIAAAQHVPTAPASRHSKKPAPPPPGMQNKAATRRSVPNPASTLTASQSNARPSPPTAATRATPAATPAAAAMGSGRQANIPPPPPPPPPSSKPKEPMFEAAYDFPGSGSPSELPLKKGDVIYITREEPSGWSLGKLLDGSKEGWVPTAYMKPHSGNNNIPTPPQNRDVPKPVLNSVQHDNTSANVIPAAAQASLGDGLANALAARANKMRLESDDEEANEDEEEDDW
Growth (Fig. S2D) (Bathophenanthroline.0.1uM): 10.7807
Growth (Fig. S2D) (Bathophenanthroline.10uM): 10.5943
Growth (Fig. S2D) (Bathophenanthroline.1uM): 10.7288
Growth (Fig. S2D) (CaCl2.100mM): 10.8763
Growth (Fig. S2D) (CaCl2.250mM): 10.7748
Growth (Fig. S2D) (CaCl2.500mM): 10.1951
Growth (Fig. S2D) (Caffein.10mM): 10.0771
Growth (Fig. S2D) (Caffein.2mM): 10.9616
Growth (Fig. S2D) (CdCl2.100uM): 9.383
Growth (Fig. S2D) (CdCl2.10uM): 10.8746
Growth (Fig. S2D) (CdCl2.50uM): 9.758
Growth (Fig. S2D) (CuSO4.1mM): 10.0515
Growth (Fig. S2D) (CuSO4.5mM): 7.47
Growth (Fig. S2D) (Cycloheximide.0.05.uM): 11.0185
Growth (Fig. S2D) (Cycloheximide.0.2.uM): 10.5753
Growth (Fig. S2D) (Cycloheximide.0.5.uM): 10.0157
Growth (Fig. S2D) (DMSO.2.): 11.0566
Growth (Fig. S2D) (DMSO.6.): 9.912
Growth (Fig. S2D) (DMSO.8.): 9.351
Growth (Fig. S2D) (Ethanol.2.): 10.6973
Growth (Fig. S2D) (Ethanol.6.): 10.1096
Growth (Fig. S2D) (Ethanol.8.): 9.896
Growth (Fig. S2D) (Galactose.2.): 10.7371
Growth (Fig. S2D) (Glycerol.2.): 8.938
Growth (Fig. S2D) (Hydroxyurea.25mM): 10.701
Growth (Fig. S2D) (Hygromycin.190uM): 10.9824
Growth (Fig. S2D) (Hygromycin.19uM): 10.9737
Growth (Fig. S2D) (Hygromycin.95uM): 11.0723
Growth (Fig. S2D) (MMS.0.004.): 10.9048
Growth (Fig. S2D) (MMS.0.02.): 10.5139
Growth (Fig. S2D) (MMS.0.04.): 9.517
Growth (Fig. S2D) (Menadione.100uM): 10.5627
Growth (Fig. S2D) (Menadione.200uM): 10.4133
Growth (Fig. S2D) (Menadione.50uM): 10.7993
Growth (Fig. S2D) (NaCl.0.25M): 10.7283
Growth (Fig. S2D) (NaCl.1M): 9.177
Growth (Fig. S2D) (Nitroquinoline.10uM): 10.6793
Growth (Fig. S2D) (Nitroquinoline.50uM): 10.4598
Growth (Fig. S2D) (Nystatin.0.01uM): 11.0134
Growth (Fig. S2D) (Nystatin.0.1uM): 10.9398
Growth (Fig. S2D) (Raffinose.2.): 10.9979
Growth (Fig. S2D) (Rapamycin.10nM): 9.833
Growth (Fig. S2D) (Rapamycin.50nM): 9.517
Growth (Fig. S2D) (SC.pH3): 10.3672
Growth (Fig. S2D) (SC.pH6): 10.9549
Growth (Fig. S2D) (SDS.0.01.): 10.9651
Growth (Fig. S2D) (SDS.0.02.): 10.9575
Growth (Fig. S2D) (SDS.0.05.): 10.8115
Growth (Fig. S2D) (Sorbitol.10mM): 10.9933
Growth (Fig. S2D) (Sorbitol.1mM): 11.0521
Growth (Fig. S2D) (Sorbitol.5mM): 10.9248
